Numbering of substitutions follows the chain as printed.

The labels stand for the following.
B1: PMP17B11 (VHH)
VHH: QVQLVESGGGLVQAGGSLRLSCAASGPTFSTYAMGWFRQAPGKEREFVAAISWSGANTYYADSVKGRFTISRDNAKNTVYLRMNSLKPEDTAAYYCAASAIIEGFQDSIVIFSEAGYDYWGQGTQVTVSS
B2: PMP21B4 (VHH)
VHH: QVQLVESGGGLVQAGDSLRVACAASGRTFSIDAMAWFRQAPGKEREFVSTMNWSTGATYYADSVKGRFTSSRDNAKSTSYLQMNSLKPEDTAVYYCAAARGLLIATDARGYDYWGQGTQVTVSS
notes: Monovalent Nanobody
B3: PMP10A6 (VHH)
VHH: QVQLVESGGGLVQAGGSLRLSCASSGRTFSSYVMGWFRQTPGKEREFVSTINWSGSNGYYADSVKGRFTISRDNAKNTVYLQMNNLKPEDTAVYYCAASAGGFLVPRVGQGYDYWGQGTQVTVSS
notes: Monovalent Nanobody
B4: PMP10C4 (VHH)
VHH: AVQLVDSGGGLVQAGGSLRLSCAASGRSFSNYHMVWFRQAPGKEREFVAAASGSTSSTYYADSVKGRFTISRDNAKNTVYLQMNSLKPEDTAVYYCAAVAGLLLPRVAEGMDYWGKGTLVTVSS
notes: Monovalent Nanobody
B5: PMP6G10 (VHH)
VHH: QVQLVESGGGLAQAGGSLRLSCVVSGRTFSPYTIGWFSQRPGKEREWVATIIGSDRSTDLDGDTYYADSVRGRFTISRNDAKNTVSLQMNSLKPEDSAVYYCALTAKGYVFTDNEYDYWGQGTQVTVSS
notes: Monovalent Nanobody
B6: PMP14G4 (VHH)
VHH: AVQLVDSGGGLVQAGGSLRLSCAASGRTFSSYPMGWFRQGPGKERKFVAGISQSGVGTAYSDSVKGRFTISRENAKNTVYLQMNSLKPEDTAVYYCAARDKTLALRDYAYTTDVGYDDWGQGTQVTVSS
notes: Monovalent Nanobody
B7: PMP23H2 (VHH)
VHH: AVQLVDSGGGLVQPGGSLRLSCAASGSIFSRLAMDWYRQAPGKQRELVASIAVSGTTMLDDSVKGRFTISRDNAENTVYLQMNSLKPEDTAVYYCMAFDGYTGSDYWGRGTQVTVSS
notes: Monovalent Nanobody
B8: PMP20D2 (VHH)
VHH: AVQLVESGGGLVQPGGSLRLSCAASGSISRFNIMGWYRQAPGKQRELVADITNRGTTNYADSVKGRFTISRDNTKNTVYLQMNSLKPDDTAVYYCHTYYPTTGFDDWGQGTQVTVSS
notes: Monovalent Nanobody
B9: PMP13H6 (VHH)
VHH: B3 VHH with Q3K, V5E, G58K, N85S
notes: Monovalent Nanobody
B10: NC6 (VHH)
VHH: EVQLVESGGGLVQAGGSLRLSCAASGPTFSSYAMGWFRQAPGKDREFVAAISSNGGSTRYADSVKGRFTISRDSAKNTAYLQMNSLKLEDTAVYYCAADETTGWVQLADFRSWGQGTQVTVSS
notes: Monovalent Nanobody
B11: PMP21C2 (VHH)
VHH: QVQLVESGGGLVQPGGSLRLSCAASEYITSINPMAWYRQAPGKQRDLVARIFGGGSTNYADSVKGRFTISRDIAKNTVSLQMNSLKPEDTAVYYCNARRWGYDYWGQGTQVTVSS
notes: Monovalent Nanobody
B12: PMP6B7 (VHH)
VHH: QVQLVESGGGLVQAGGSLRLSCAASGGTFSAFPMGWFRQAPGKERKFVAGISQSGGSTHYSDSVKGRFTISRENAKNTVYLQMNSLKPEDTAVYYCAARGRTLALRNYAYTTEVGYDDWGQGTQVTVSS
notes: Monovalent Nanobody
B13: PMP6E9 (VHH)
VHH: B12 VHH with Q1E, G27R, A31S, F32Y, G55S, G56S, H59A, N107D
notes: Monovalent Nanobody
B14: PMP12C5 (VHH)
VHH: B12 VHH with Q1D, S30T, A31S, F32Y, H59A, N77T, A104F, N107G
notes: Monovalent Nanobody
B15: PMP14A8 (VHH)
VHH: B12 VHH with Q1E, A31S, S85N
notes: Monovalent Nanobody
B16: PMP14G1 (VHH)
VHH: B12 VHH with Q3K, V5E, K46E, R72K, R101G
notes: Monovalent Nanobody
B17: PMP14G11 (VHH)
VHH: B12 VHH with A31S, E44G, K46E
notes: Monovalent Nanobody
B18: PMP14E9 (VHH)
VHH: B12 VHH with Q1A, K46E, R72K, N77S
notes: Monovalent Nanobody
B19: PMP14E1 (VHH)
VHH: B6 VHH with A1Q, D6E, G40A, V56G, G57S, N77S
notes: Monovalent Nanobody
B20: PMP9F9 (VHH)
VHH: B12 VHH with Q1A, A31S, K43E, E44K, K46E, K76R
notes: Monovalent Nanobody
B21: PMP17B5 (VHH)
VHH: B12 VHH with V79I
notes: Monovalent Nanobody
B22: PMP12H3 (VHH)
VHH: B12 VHH with Q1A, E6D, S30T, A31S, F32Y, H59A, N77T, A104F, N107D
notes: Monovalent Nanobody
B23: PMP17D7 (VHH)
VHH: B12 VHH with Q1A, E6D, K46E, R72K
notes: Monovalent Nanobody
B24: PMP17G7 (VHH)
VHH: B12 VHH with Q3K, V5E, A31S, F32Y, K46E, A49T, H59A, L103I
notes: Monovalent Nanobody
B25: NC3 (VHH)
VHH: EVQLVESGGGLVQPGGSLRLSCAASGNIAAINVMNWYRQAPGTQREFVAAITSGGRKNYADSVKGRFTISRDNAKNTVHLQMNSLKPEDTAVYYCNADAPLASDDDVAPADYWGQGTQVTVSS
notes: Monovalent Nanobody
B26: PMP21E12 (VHH)
VHH: AVQLVESGGGLVQPGGSLRLSCAASGSITSINPMGWYRQAPGKQRELVARIHGSITNYADSVKGRFTISRDIAKNTVYLQMNSLKPEDTAVYYCNARRWGYDYWGQGAQVTVSS
notes: Monovalent Nanobody
B27: PMP21C12 (VHH)
VHH: B26 VHH with S30G, V77A
notes: Monovalent Nanobody
B28: PMP7H3 (VHH)
VHH: DVQLVESGGGLVQPGGSLRLSCAASGFTLDYYGVGWFRQAPGKEREGVSCISSSDGDTYYADSVKGRFTISRDNAKNTVYLQMNSLKPEDTAVYYCATDLSDYGVCSRWPSPYDYWGQGTQVTVSS
notes: Monovalent Nanobody
B29: PMP9A9 (VHH)
VHH: B28 VHH with D1Q, T28S, I51T
notes: Monovalent Nanobody
B30: PMP22E3 (VHH)
VHH: QVQLVESGGGLVQPGGSLRLSCAASGFTLDDSAIGWFRQAPGKEREGVSCISSSDGDTYYDDSVKGRFTISRDNVKNMVYLQMNSLKPEDTAVYFCAIDLSDYGVCSKWPSPYDYWGQGTQVTVSS
notes: Monovalent Nanobody
B31: PMP6D5 (VHH)
VHH: QVQLVESGGGLVQAGGSLRLSCAASGRTFSPYTMGWFRQPPGKVREFVGRINWSGIRNYADSVKGRFTISRDNNNNTVYLQMNRLKPEDTAVYYCAAASQSGSGYDSWGQGTQVTVSS
B32: PMP13D8 (VHH)
VHH: B31 VHH with Q3K, V5E, G16S, F29S, R57T, N75K, A97S, S101V
notes: Monovalent Nanobody
B33: PMP20G9 (VHH)
VHH: B31 VHH with M34V
notes: Monovalent Nanobody
B34: PMP20F4 (VHH)
VHH: B31 VHH with Q100R
notes: Monovalent Nanobody
B35: PMP21A7 (VHH)
VHH: B31 VHH with Q1A, G16S, R57T, N75K, Q100R
notes: Monovalent Nanobody
B36: PMP13A1 (VHH)
VHH: B31 VHH with Q1A, E6D
notes: Monovalent Nanobody

The first test concerns the target T1, recombinant human IL6 (human, UniProt P05231 30-212). Description: cell-based or functional assay.
With B1, the “IC50, inhibition of proliferation of the murine hybridoma cell line B9 (B9 assay, cell proliferation normalized)” value came to 0.702 nM. B2: the “IC50, inhibition of proliferation of the murine hybridoma cell line B9 (B9 assay, cell proliferation normalized)” value is 1.86 nM. As for B3, the “IC50, inhibition of proliferation of the murine hybridoma cell line B9 (B9 assay, cell proliferation normalized)” value turned out to be 0.332 nM. Still for that read-out and setting: for B4 the value was 0.961 nM.

The target in another test is T1, recombinant human IL6. Description: SPR, Biacore 3000; IL6 amine-coupled on CM5 chip, periplasmic extract injected. The procedure: Off-rate analysis of Nanobodies binding to IL6 was done by surface plasmon resonance on a Biacore 3000 instrument. Recombinant human IL6 was covalently bound to a CM5 sensor chip via amine coupling at a density of ˜500 RU. Remaining reactive groups were inactivated. Periplasmic extracts prepared from E. coli cells expressing anti-IL6 Nanobodies were diluted 10 or 15-fold and injected for 4 min to allow for binding to IL6 immobilized on the chip. Buffer without Nanobody was sent over the chip for 30 min to allow for spontaneous dissociation of bound Nanobody. The dissociation phase was used to calculate the koff values for each individual Nanobody (table B-1).
(SPR reads the build-up and loss of mass on a sensor chip optically.)
B5: the koff (commonly the rate constant with which the complex falls apart) was 0.000433 s⁻¹. B6: the koff was determined as 0.000312 s⁻¹.

As to B7, the koff came out at 0.0016 s⁻¹. For the molecule B8, the koff came to 0.000243 s⁻¹. Take B1: the koff amounted to 0.00133 s⁻¹.

As to B2, the off-rate (koff) came out at 0.000658 s⁻¹. The same measure, in the same setting: to B3 belongs 0.00104 s⁻¹.

Turning to B9, the koff was 0.00189 s⁻¹. On the same count and under the same terms, for B10 the value was 0.00082 s⁻¹; for B11, 0.00116 s⁻¹.

As for B4, the off-rate (koff) was found to be 0.00082 s⁻¹.

Consider B12, for which the koff turned out to be 0.000199 s⁻¹.

As to B13, the koff came to 0.000631 s⁻¹. B14: the koff is 0.000211 s⁻¹.

As to B15, the koff came to 0.000131 s⁻¹. Consider B16, for which the koff is 0.00079 s⁻¹. In the case of B17, the koff was found to be 0.000229 s⁻¹. Turning to B18, the koff stood at 0.000531 s⁻¹. Regarding B19, the koff is 0.00057 s⁻¹. On the same count and under the same terms, to B20 belongs 0.00019 s⁻¹. As to B21, the koff was determined as 0.00015 s⁻¹. Consider B22, for which the koff amounted to 0.000243 s⁻¹. Consider B23, for which the koff was 0.00116 s⁻¹. For B24, the off-rate (koff) came to 0.000669 s⁻¹. For the molecule B25, the koff was found to be 0.00056 s⁻¹.

With B26, the koff was 0.00222 s⁻¹.

With B27, the koff was found to be 0.000897 s⁻¹. On the same count and under the same terms, to B28 belongs 0.00309 s⁻¹. On to B29, for which the koff amounted to 0.00605 s⁻¹. On to B30, for which the off-rate (koff) was determined as 0.00519 s⁻¹. Still for that read-out and setting: to B31 belongs 0.000511 s⁻¹; to B32, 0.000251 s⁻¹; to B33, 0.000318 s⁻¹. B34: the koff was 0.000195 s⁻¹. Consider B35, for which the koff is 0.000526 s⁻¹.

Turning to B36, the koff worked out at 0.000396 s⁻¹.

The values above are taken from patent US20090297535A1 (Ablynx, published 2009).
